B1: BTBD1 (parent)
chain: YGSIHGPTDYQVNIQIIEYEKKQT
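Note: lentivirally expressed fusions sorted by FACS into six bins by GFP to DsRed ratio, PSI derived from sequencing read proportions per bin multiplied by bin number.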

Variants of: B1
Test: protein stability index of a GFP-peptide fusion (GPS, HEK-293T) (PSI 1-6); higher = more stable
Settings: c terminus: a fixed tail appended
YGSIHGPTDYQVPIQIIEYEKKQT showed a protein stability index of 3.23. In the case of YGSIHGPTDYQVRIQIIEYEKKQT, the protein stability index is reported as 2. YGSIHGPTDYQVCIQIIEYEKKQT showed a protein stability index of 1.7. In the case of YGSIHGPTDYQVTIQIIEYEKKQT, the protein stability index is reported as 1.82. Work on YGSIHGPTDYQVFIQIIEYEKKQT yielded a protein stability index of 1.39. With YGSIHGPTDYQVWIQIIEYEKKQT the protein stability index was 1.85. In the case of YGSIHGPTDYQVIIQIIEYEKKQT, the protein stability index is reported as 1.83. Variant YGSIHGPTDYQVMIQIIEYEKKQT has a protein stability index of 2.74. With YGSIHGPTDYQVSIQIIEYEKKQT the protein stability index was 2.15. Work on YGSIHGPTDYQVQIQIIEYEKKQT yielded a protein stability index of 2.69. In the case of YGSIHGPTDYQVLIQIIEYEKKQT, the protein stability index is reported as 2.22. For YGSIHGPTDYQVHIQIIEYEKKQT, the protein stability index was 2.48. YGSIHGPTDYQVDIQIIEYEKKQT showed a protein stability index of 2.59. Variant YGSIHGPTDYQVEIQIIEYEKKQT has a protein stability index of 2.79. YGSIHGPTDYQVKIQIIEYEKKQT showed a protein stability index of 2.57. For YGSIHGPTDYQVVIQIIEYEKKQT, the protein stability index was 1.87. With YGSIHGPTDYQVGIQIIEYEKKQT the protein stability index was 3.34. YGSIHGPTDYQVYIQIIEYEKKQT gave a protein stability index of 2.19. With YGSIHGPTDYQVAIQIIEYEKKQT the protein stability index was 2.4. YGSIHGPYDYQVNIQIIEYEKKQT showed a protein stability index of 2.56. YGSIHGPTDYQLNIQIIEYEKKQT showed a protein stability index of 3.28. With YGSIHGPTDYQTNIQIIEYEKKQT the protein stability index was 3.72. Variant YGSIHGPTDYQRNIQIIEYEKKQT has a protein stability index of 3.66. YGSIHGPTDYQMNIQIIEYEKKQT gave a protein stability index of 2.93. Work on YGSIHGPTDYQHNIQIIEYEKKQT yielded a protein stability index of 4.09. Work on YGSIHGPTDYQDNIQIIEYEKKQT yielded a protein stability index of 4.04. YGSIHGPTDYQYNIQIIEYEKKQT showed a protein stability index of 2.87. With YGSIHGPTDYQKNIQIIEYEKKQT the protein stability index was 3.44. In the case of YGSIHGPTDYQENIQIIEYEKKQT, the protein stability index is reported as 4.08. In the case of YGSIHGPTDYQANIQIIEYEKKQT, the protein stability index is reported as 3.6. Work on YGSIHGPTDYQNNIQIIEYEKKQT yielded a protein stability index of 4.15. YGSIHGPTDYQGNIQIIEYEKKQT gave a protein stability index of 3.52. YGSIHGPTDYQINIQIIEYEKKQT gave a protein stability index of 2.72. YGSIHGPTDYQWNIQIIEYEKKQT gave a protein stability index of 2.32. With YGSIHGPTDYQQNIQIIEYEKKQT the protein stability index was 4.19. For YGSIHGPTDYQFNIQIIEYEKKQT, the protein stability index was 2.71. In the case of YGSIHGPTDYQPNIQIIEYEKKQT, the protein stability index is reported as 2.95. YGSIHGPTDYQCNIQIIEYEKKQT gave a protein stability index of 2.77. Work on YGSIHGPTDYQSNIQIIEYEKKQT yielded a protein stability index of 3.98. Variant YGSIHGPTDYQVNIQIIVYEKKQT has a protein stability index of 3.19. With YGSIHGPTDYQVNIQIIWYEKKQT the protein stability index was 3.17. YGSIHGPTDYQVNIQIINYEKKQT showed a protein stability index of 2.17. In the case of YGSIHGPTDYQVNIQIIPYEKKQT, the protein stability index is reported as 2.17. In the case of YGSIHGPTDYQVNIQIIGYEKKQT, the protein stability index is reported as 2.24. YGSIHGPTDYQVNIQIITYEKKQT gave a protein stability index of 2.07. For YGSIHGPTDYQVNIQIIQYEKKQT, the protein stability index was 2.1. In the case of YGSIHGPTDYQVNIQIIFYEKKQT, the protein stability index is reported as 3.79. YGSIHGPTDYQVNIQIIHYEKKQT showed a protein stability index of 1.84. With YGSIHGPTDYQVNIQIILYEKKQT the protein stability index was 3.33. For YGSIHGPTDYQVNIQIIMYEKKQT, the protein stability index was 2.44. Work on YGSIHGPTDYQVNIQIISYEKKQT yielded a protein stability index of 1.88. YGSIHGPTDYQVNIQIIRYEKKQT showed a protein stability index of 1.85. YGSIHGPTDYQVNIQIIYYEKKQT showed a protein stability index of 3.61. YGSIHGPTDYQVNIQIIKYEKKQT showed a protein stability index of 2.61. YGSIHGPTDYQVNIQIICYEKKQT showed a protein stability index of 1.86. YGSIHGPTDYQVNIQIIDYEKKQT gave a protein stability index of 2.64. Work on YGSIHGPTDYQVNIQIIAYEKKQT yielded a protein stability index of 1.71. In the case of YGSIHGPTDYQVNIQIIIYEKKQT, the protein stability index is reported as 3.84. YGSIHGPTLYQVNIQIIEYEKKQT gave a protein stability index of 3.37. Variant YGSIHGPTSYQVNIQIIEYEKKQT has a protein stability index of 1.65. YGSIHGPTRYQVNIQIIEYEKKQT gave a protein stability index of 2.65. In the case of YGSIHGPTNYQVNIQIIEYEKKQT, the protein stability index is reported as 1.98. YGSIHGPTAYQVNIQIIEYEKKQT showed a protein stability index of 3.12. For YGSIHGPTVYQVNIQIIEYEKKQT, the protein stability index was 2.24. With YGSIHGPTCYQVNIQIIEYEKKQT the protein stability index was 1.94. YGSIHGPTQYQVNIQIIEYEKKQT gave a protein stability index of 2.18. With YGSIHGPTGYQVNIQIIEYEKKQT the protein stability index was 1.75. With YGSIHGPTYYQVNIQIIEYEKKQT the protein stability index was 2.08. YGSIHGPTKYQVNIQIIEYEKKQT showed a protein stability index of 1.82. In the case of YGSIHGPTTYQVNIQIIEYEKKQT, the protein stability index is reported as 2.42. Work on YGSIHGPTEYQVNIQIIEYEKKQT yielded a protein stability index of 1.95. Work on YGSIHGPTHYQVNIQIIEYEKKQT yielded a protein stability index of 1.63. In the case of YGSIHGPTMYQVNIQIIEYEKKQT, the protein stability index is reported as 2.23. YGSIHGPTIYQVNIQIIEYEKKQT showed a protein stability index of 4.42. YGSIHGPTPYQVNIQIIEYEKKQT showed a protein stability index of 2.44. YGSIHGPTDRQVNIQIIEYEKKQT gave a protein stability index of 4.12. YGSIHGPTDKQVNIQIIEYEKKQT showed a protein stability index of 4.24. Work on YGSIHGPTDDQVNIQIIEYEKKQT yielded a protein stability index of 4.3. For YGSIHGPTDVQVNIQIIEYEKKQT, the protein stability index was 2.77. YGSIHGPTDEQVNIQIIEYEKKQT gave a protein stability index of 4.55. With YGSIHGPTDAQVNIQIIEYEKKQT the protein stability index was 4.06. YGSIHGPTDNQVNIQIIEYEKKQT gave a protein stability index of 4.48. For YGSIHGPTDGQVNIQIIEYEKKQT, the protein stability index was 3.79. For YGSIHGPTDIQVNIQIIEYEKKQT, the protein stability index was 2.44. With YGSIHGPTDHQVNIQIIEYEKKQT the protein stability index was 3.77. In the case of YGSIHGPTDTQVNIQIIEYEKKQT, the protein stability index is reported as 4.1. YGSIHGPTDSQVNIQIIEYEKKQT showed a protein stability index of 4.16. For YGSIHGPTDCQVNIQIIEYEKKQT, the protein stability index was 2.96. Work on YGSIHGPTDLQVNIQIIEYEKKQT yielded a protein stability index of 2.87. Work on YGSIHGPTDFQVNIQIIEYEKKQT yielded a protein stability index of 2.43. Work on YGSIHGPTDQQVNIQIIEYEKKQT yielded a protein stability index of 4.33. In the case of YGSIHGPTDWQVNIQIIEYEKKQT, the protein stability index is reported as 2.05. With YGSIHGPTDMQVNIQIIEYEKKQT the protein stability index was 3.63. Variant YGSIHGPTDPQVNIQIIEYEKKQT has a protein stability index of 4.31.

Reference: the supplement of paper PMC10567573
